This data set relates to Nc1nc2nc[nH]c2c(=O)[nH]1. The data set is described as follows: purified protein, by the assay type. Particulars: guanine as substrate, 20 μM tRNA, 37 °C, pH 7.3.

The kcat is the number of substrate molecules converted per active site and unit of time at saturation. Consider “E. coli TGT C145V/T146V (Escherichia coli K-12; C145V/T146V)”, for which, under “other: C145V/T146V”, the Km is listed as 0.87 (0.18) μM and the kcat stood at 0.00053 s⁻¹.
“E. coli TGT V217G (Escherichia coli K-12; V217G)”: under “other: V217G”, the Km is reported as 1.00 (0.10) μM and the kcat worked out at 0.000259 s⁻¹.

(Values after PMC3124622.)
